Like-named read-outs stand apart in the source and are kept apart here.
Tests used:
[1] = cited from earlier work
[2] = Solubility of lysozyme by turbidimetric assay (absorbance at 600 nm); assay type: physicochemical
Description: Initial solubility studies were performed on the model protein lysozyme in water. Samples having known concentrations were prepared by weighing the lysozyme and adding the appropriate amount of water to get the desired concentration in mg/mL. The samples were gently inverted several times and stored at room temperature for 1 hour to overnight to allow the protein to rehydrate. Solubility limits were determined via turbidimetric assay.
The samples were then placed in a Biotek Synergy plate reader and absorbance was measured from 200 nm to 900 nm. As FIG. 1 illustrates, lysozyme has a characteristic […] at 280 nm that can be used along with Beer-Lambert's law to measure the concentration, however, for samples above 5 mg/mL, the instrument sensor becomes saturated and the readings are not useful for determining concentration. Therefore, to determine solubility limits, the absorbance at 600 nm was used to indicate the presence of aggregate or particulate in suspension. At this wavelength, far from the characteristic absorbance, any increase in absorbance is an indicator that the protein is not completely in solution. A baseline was established by measuring the absorbance of pure water or TCH solution without any lysozyme. Samples were measured in triplicate and the averages are plotted in the accompanying figures.
To determine the effect of TCH on the solubility of lysozyme, values for the solubility of lysozyme in TCH formulations as a function of water content were obtained. […] There is a characteristic peak proximate 280 nm that can be used can be used along with Beer-Lambert's law to determine concentrations, however, the spectra is near zero away from this peak.

[3] = in NaH2PO4; cited from earlier work
[4] = Thermal stability of lysozyme in TCH by differential scanning calorimetry; assay type: physicochemical
Description: TCH solutions were prepared, water was added, and the water content was measured using Karl Fischer titration until the desired solutions were achieved. Lysozyme was weighed into the container and the appropriate amount of TCH was added to achieve a solution with a concentration of approximately 1 mg/mL. Samples were gently inverted several times and left at room temperature for one hour or overnight to allow the lysozyme to rehydrate and go into solution. Some samples were dried by evaporative drying and rehydrated prior to scanning Another sample of lysozyme in 0.1M sodium acetate buffer pH 4 was prepared for comparison.
To determine the stability of lysozyme in TCH over time, a set of samples was prepared at stable moisture contents and stored at the appropriate humidity at room temperature for a period of five weeks. These samples were prepared with a protein concentration of 10 mg/mL prior to storage. After five weeks, they were diluted to approximately 1 mg/mL and scanned using differential scanning calorimetry (DSC).
A Micro-cal VP DSC was used for determining the thermal stability of the protein. A baseline was established by scanning the TCH solution without protein at least three times until repeatability was evident. The TCH solutions used for the baseline scans are identical to the sample solutions, without protein. The baseline scans of the solutions without protein help eliminate noise resultant from variation in the sample cells. […] The concentration of lysozyme in each sample was verified prior to scanning by reading the absorbance at 280 nm on the Biotek Synergy plate reader. […]
The DSC thermal traces were fit in OriginPro with a non-two-state model that includes an output of both calorimetric enthalpy and Van't Hoff enthalpy, Hv. The calorimetric enthalpy is determined by the area under the curve and depends on the selected baseline as well as the normalized concentration. […] The number of intermediate steps in the unfolding process can be determined by taking the ratio of calorimetric enthalpy to Van't Hoff enthalpy. […]

Molecule | solubility limit ([1]; 10° C.) | solubility limit ([1]; 20° C.) | water content corresponding to solubility limit ([1]; 20° C.) | solubility limit ([1]; 40° C.) | solubility limit, as water content ([1]; pure trehalose) | solubility ([2]; in TCH 1:4 compositions, all water content levels tested (0.01 to 0.70 grams water per gram dry weight)) | solubility (in words) ([2]; in TCH solutions) | solubility (no indication of solubility issues up to maximum concentration tested) ([2]; in pure water) | absorbance at 600 nm ([2]; lysozyme in TCH solutions, each sample measured) | ratio of calorimetric to Van't Hoff enthalpies [3] | degradation after storage ([4]; five weeks of storage in stable TCH solutions, moisture content and/or humidity controlled, room temperature) | thermal unfolding temperature, stored versus fresh samples ([4]; stored five weeks in TCH, DSC) | thermal unfolding temperature ([4]; versus weight percent of TCH in solution, DSC)
OC[C@H]1O[C@H](O[C@H]2O[C@H](CO)[C@@H](O)[C@H](O)[C@H]2O)[C@H](O)[C@@H](O)[C@@H]1O [trehalose] | 42.3 % (grams trehalose per gram solution) | 46.6 % (grams trehalose per gram solution) | 53.4 % (grams water per gram solution) | 59.7 % (grams trehalose per gram solution) | 53 % water by weight | – | – | – | – | – | – | – | –
lysozyme | – | – | – | – | – | at least 40 mg/mL | readily soluble | ≥ 200 mg/mL | below 0.05 | ~1 | no sign of degradation | slightly higher unfolding temperature | increases with increasing concentrations of TCH

From patent US20170332622A1, “COMPOSITIONS AND METHODS FOR PRESERVATION AND STORAGE OF BIOLOGICAL MATERIALS” (The University of North Carolina at Charlotte, priority 2016, published 2017)
